Publication PMC9482650, “Quantitative fragmentomics allow affinity mapping of interactomes” (Nature Communications, 2022)
Substitutions are numbered along the chain they refer to.

T1: PTPN13_1, Q12923
T1 sequence (Q12923 1088-1188, limits assumed, looked up): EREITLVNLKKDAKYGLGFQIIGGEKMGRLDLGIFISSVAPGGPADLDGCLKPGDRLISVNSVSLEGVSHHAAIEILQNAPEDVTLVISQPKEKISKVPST

T2: DFNB31_3, Q9P202
T2 sequence (Q9P202 811-907, limits assumed, looked up): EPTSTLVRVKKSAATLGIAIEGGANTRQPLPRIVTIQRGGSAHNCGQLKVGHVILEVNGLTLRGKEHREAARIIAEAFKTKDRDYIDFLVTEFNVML

T3: FRMPD1, Q5SYB0
T3 sequence (Q5SYB0 52-145, limits assumed, looked up): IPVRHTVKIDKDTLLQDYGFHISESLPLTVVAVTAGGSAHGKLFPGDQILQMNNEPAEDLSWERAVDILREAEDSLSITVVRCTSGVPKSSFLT

T4: PARD3B_1, Q8TEW8
T4 sequence (Q8TEW8 196-299, limits assumed, looked up): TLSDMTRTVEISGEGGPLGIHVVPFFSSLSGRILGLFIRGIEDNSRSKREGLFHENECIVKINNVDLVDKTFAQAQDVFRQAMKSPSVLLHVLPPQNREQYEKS

T5: PCLO, Q9Y6V0
T5 sequence (Q9Y6V0 4491-4600, limits assumed, looked up): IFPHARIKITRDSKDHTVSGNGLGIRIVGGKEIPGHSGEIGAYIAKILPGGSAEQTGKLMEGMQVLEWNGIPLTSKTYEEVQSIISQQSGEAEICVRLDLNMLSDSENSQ

T6: ARHGAP21, Q5T5U3
T6 sequence (Q5T5U3 45-169, limits assumed, looked up): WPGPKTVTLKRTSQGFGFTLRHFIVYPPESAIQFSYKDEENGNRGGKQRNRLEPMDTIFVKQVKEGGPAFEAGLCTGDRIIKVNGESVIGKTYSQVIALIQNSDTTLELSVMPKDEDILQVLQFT

T7: MPP2, Q14168
T7 sequence (Q14168 180-250, limits assumed, looked up): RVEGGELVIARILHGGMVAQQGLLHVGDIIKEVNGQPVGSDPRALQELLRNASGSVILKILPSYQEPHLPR

T8: NHERF3_3, Q5T2W1
T8 sequence (Q5T2W1 238-333, limits assumed, looked up): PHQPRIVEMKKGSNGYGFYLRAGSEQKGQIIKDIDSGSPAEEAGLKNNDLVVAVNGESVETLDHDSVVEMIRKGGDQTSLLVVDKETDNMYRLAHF

T9: ARHGEF11, O15085
T9 sequence (O15085 42-136, limits assumed, looked up): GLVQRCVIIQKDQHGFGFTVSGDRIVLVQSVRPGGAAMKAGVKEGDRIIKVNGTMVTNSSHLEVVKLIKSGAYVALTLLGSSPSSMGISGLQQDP

T10: LIN7B, Q9HAP6
T10 sequence (Q9HAP6 88-185, limits assumed, looked up): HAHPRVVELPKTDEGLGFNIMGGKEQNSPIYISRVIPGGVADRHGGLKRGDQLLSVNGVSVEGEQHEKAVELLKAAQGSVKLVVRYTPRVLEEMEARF

T11: GRIP1_5, Q9Y3R0
T11 sequence (Q9Y3R0 568-668, limits assumed, looked up): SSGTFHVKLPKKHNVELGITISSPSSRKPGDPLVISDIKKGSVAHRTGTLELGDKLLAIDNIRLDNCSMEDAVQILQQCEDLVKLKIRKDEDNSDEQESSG

T12: LIN7C, Q9NUP9
T12 sequence (Q9NUP9 88-185, limits assumed, looked up): T10 sequence (Q9HAP6 88-185, limits assumed, looked up) with A2S, D13E, V35I, V40I, Q65H, S79K, R89K, A96S


How the values were obtained:
Experiment in all cases: holdup assay
Parameters in all cases: key: below the threshold = too weak to quantify, mostly under pKd 3.1 to 4
Conditions in all cases: plain residues with an end cap or a label only (N-terminal biotin on a linker: ado-ado)
PTPN13_1, Q12923 = target: T1, PTPN13_1, Q12923
DFNB31_3, Q9P202 = target: T2, DFNB31_3, Q9P202
FRMPD1, Q5SYB0 = target: T3, FRMPD1, Q5SYB0
PARD3B_1, Q8TEW8 = target: T4, PARD3B_1, Q8TEW8
PCLO, Q9Y6V0 = target: T5, PCLO, Q9Y6V0
IL16_3, Q14005 = target: IL16_3, Q14005
Chain of IL16_3, Q14005 (Q14005 1107-1207): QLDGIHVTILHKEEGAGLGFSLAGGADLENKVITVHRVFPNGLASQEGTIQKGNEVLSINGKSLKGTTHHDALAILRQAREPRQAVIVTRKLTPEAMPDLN

GRID2IP_2, A4D2P6 = target: GRID2IP_2, A4D2P6
Chain of GRID2IP_2, A4D2P6 (A4D2P6 272-370): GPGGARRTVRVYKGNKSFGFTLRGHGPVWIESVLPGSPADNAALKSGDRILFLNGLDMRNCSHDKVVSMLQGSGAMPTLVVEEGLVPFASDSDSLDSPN

ARHGAP21, Q5T5U3 = target: T6, ARHGAP21, Q5T5U3
Inadl_8, Q8NI35 = target: Inadl_8, Q8NI35
Chain of Inadl_8, Q8NI35 (Q8NI35 1425-1530): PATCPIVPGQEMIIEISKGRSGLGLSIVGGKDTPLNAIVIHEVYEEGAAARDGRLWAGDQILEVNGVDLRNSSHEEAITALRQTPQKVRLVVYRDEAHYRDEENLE

LNX1_1, Q8TBB1 = target: LNX1_1, Q8TBB1
Chain of LNX1_1, Q8TBB1 (Q8TBB1 261-371): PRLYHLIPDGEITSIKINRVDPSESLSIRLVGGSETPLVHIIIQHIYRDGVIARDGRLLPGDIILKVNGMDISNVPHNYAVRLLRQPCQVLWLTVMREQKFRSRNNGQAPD

MAGI2_4, Q86UL8 = target: MAGI2_4, Q86UL8
Chain of MAGI2_4, Q86UL8 (Q86UL8 772-865): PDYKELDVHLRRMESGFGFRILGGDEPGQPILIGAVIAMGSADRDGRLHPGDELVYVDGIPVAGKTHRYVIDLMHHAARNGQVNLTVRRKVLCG

MPP2, Q14168 = target: T7, MPP2, Q14168
DLG4_2, P78352 = target: DLG4_2, P78352
Chain of DLG4_2, P78352 (P78352 155-259): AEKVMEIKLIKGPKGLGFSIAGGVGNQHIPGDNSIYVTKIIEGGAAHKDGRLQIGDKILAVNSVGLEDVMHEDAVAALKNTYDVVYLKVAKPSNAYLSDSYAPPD

NHERF3_3, Q5T2W1 = target: T8, NHERF3_3, Q5T2W1
Inadl_10, Q8NI35 = target: Inadl_10, Q8NI35
Chain of Inadl_10, Q8NI35 (Q8NI35 1673-1763): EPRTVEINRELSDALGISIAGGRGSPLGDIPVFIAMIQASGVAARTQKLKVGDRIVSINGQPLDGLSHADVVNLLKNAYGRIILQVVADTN

ARHGEF11, O15085 = target: T9, ARHGEF11, O15085
LIN7B, Q9HAP6 = target: T10, LIN7B, Q9HAP6
NHERF4_2, Q86UT5 = target: NHERF4_2, Q86UT5
Chain of NHERF4_2, Q86UT5 (Q86UT5 220-308): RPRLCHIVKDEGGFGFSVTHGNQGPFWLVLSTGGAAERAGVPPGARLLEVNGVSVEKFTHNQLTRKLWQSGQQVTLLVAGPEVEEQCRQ

NOS1, P29475 = target: NOS1, P29475
Chain of NOS1, P29475 (P29475 9-101): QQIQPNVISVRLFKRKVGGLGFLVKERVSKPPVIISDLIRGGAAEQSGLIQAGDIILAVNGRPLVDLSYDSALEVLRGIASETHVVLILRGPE

GRIP1_5, Q9Y3R0 = target: T11, GRIP1_5, Q9Y3R0
PARD3_3, Q8TEW0 = target: PARD3_3, Q8TEW0
Chain of PARD3_3, Q8TEW0 (Q8TEW0 582-685): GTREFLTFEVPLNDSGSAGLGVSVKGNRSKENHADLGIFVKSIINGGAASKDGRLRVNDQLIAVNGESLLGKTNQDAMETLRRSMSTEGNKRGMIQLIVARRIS

GRIP2_4, Q9C0E4 = target: GRIP2_4, Q9C0E4
Chain of GRIP2_4, Q9C0E4 (Q9C0E4 446-548): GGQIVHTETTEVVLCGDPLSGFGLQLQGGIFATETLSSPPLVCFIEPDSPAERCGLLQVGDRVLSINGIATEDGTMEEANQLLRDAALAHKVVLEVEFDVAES

GIPC2, Q8TF65 = target: GIPC2, Q8TF65
Chain of GIPC2, Q8TF65 (Q8TF65 112-203): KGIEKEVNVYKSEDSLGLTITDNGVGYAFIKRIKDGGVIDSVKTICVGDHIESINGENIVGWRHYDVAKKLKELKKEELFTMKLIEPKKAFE

LIN7C, Q9NUP9 = target: T12, LIN7C, Q9NUP9

Row | Binder | pKd (PTPN13_1, Q12923) | pKd (DFNB31_3, Q9P202) | pKd (FRMPD1, Q5SYB0) | pKd (PARD3B_1, Q8TEW8) | pKd (PCLO, Q9Y6V0) | pKd (IL16_3, Q14005) | pKd (GRID2IP_2, A4D2P6) | pKd (ARHGAP21, Q5T5U3) | pKd (Inadl_8, Q8NI35) | pKd (LNX1_1, Q8TBB1) | pKd (MAGI2_4, Q86UL8) | pKd (MPP2, Q14168) | pKd (DLG4_2, P78352) | pKd (NHERF3_3, Q5T2W1) | pKd (Inadl_10, Q8NI35) | pKd (ARHGEF11, O15085) | pKd (LIN7B, Q9HAP6) | pKd (NHERF4_2, Q86UT5) | pKd (NOS1, P29475) | pKd (GRIP1_5, Q9Y3R0) | further results
1 | QYPGSPDSWV [PKP4, Q99569] | below the threshold | 3.75 | below the threshold | 3.56 | below the threshold | 3.55 | below the threshold | 3.56 | 4.16 | 3.98 | 4.32 | below the threshold | 4.62 | below the threshold | 3.75 | below the threshold | below the threshold | below the threshold | 3.78 | below the threshold | pKd (PARD3_3, Q8TEW0): 3.85; pKd (GRIP2_4, Q9C0E4): below the threshold; pKd (GIPC2, Q8TF65): 3.5; pKd (LIN7C, Q9NUP9): 3.94
2 | YPKQMPLSQV [FZD8, Q9H461] | below the threshold | below the threshold | below the threshold | below the threshold | below the threshold | below the threshold | 4.28 | 3.94 | 4.61 | 3.74 | below the threshold | below the threshold | below the threshold | below the threshold | below the threshold | 3.89 | below the threshold | below the threshold | below the threshold | below the threshold | pKd (PARD3_3, Q8TEW0): below the threshold; pKd (GRIP2_4, Q9C0E4): below the threshold; pKd (GIPC2, Q8TF65): below the threshold; pKd (LIN7C, Q9NUP9): below the threshold
3 | GDGLDDEIAV [NOS1AP, O75052] | below the threshold | below the threshold | below the threshold | below the threshold | below the threshold | below the threshold | below the threshold | 4.51 | below the threshold | below the threshold | below the threshold | below the threshold | below the threshold | below the threshold | below the threshold | 4.37 | 3.52 | below the threshold | 3.8 | below the threshold | pKd (PARD3_3, Q8TEW0): 4.3; pKd (GRIP2_4, Q9C0E4): below the threshold; pKd (GIPC2, Q8TF65): below the threshold; pKd (LIN7C, Q9NUP9): below the threshold
4 | DFRHKSSFVI [JAM3, Q9BX67] | below the threshold | 3.86 | below the threshold | 5.03 | below the threshold | below the threshold | below the threshold | below the threshold | below the threshold | below the threshold | below the threshold | 3.67 | below the threshold | below the threshold | below the threshold | below the threshold | 3.82 | below the threshold | below the threshold | below the threshold | pKd (PARD3_3, Q8TEW0): 3.94; pKd (GRIP2_4, Q9C0E4): below the threshold; pKd (GIPC2, Q8TF65): below the threshold; pKd (LIN7C, Q9NUP9): 3.93
5 | QNRIITKTDV [SMCHD1, A6NHR9] | below the threshold | below the threshold | below the threshold | below the threshold | below the threshold | below the threshold | 3.95 | 4.04 | 4.77 | 3.7 | 3.69 | below the threshold | 4.15 | below the threshold | below the threshold | 4.13 | below the threshold | below the threshold | below the threshold | below the threshold | pKd (PARD3_3, Q8TEW0): below the threshold; pKd (GRIP2_4, Q9C0E4): below the threshold; pKd (GIPC2, Q8TF65): below the threshold; pKd (LIN7C, Q9NUP9): 3.94
6 | LGHTPFVDEL [UQCRC2, P22695] | below the threshold | 3.82 | below the threshold | below the threshold | below the threshold | below the threshold | below the threshold | 3.91 | below the threshold | below the threshold | below the threshold | below the threshold | below the threshold | below the threshold | below the threshold | 3.79 | below the threshold | below the threshold | below the threshold | below the threshold | pKd (PARD3_3, Q8TEW0): below the threshold; pKd (GRIP2_4, Q9C0E4): below the threshold; pKd (GIPC2, Q8TF65): below the threshold; pKd (LIN7C, Q9NUP9): below the threshold
